# Laboratory results published in patent US7897568B2, “Compositions for treatment of cancer” (priority 2006, dated 2011).
# Where no end group is shown, it is not given here.
# B1: ANK peptide KGNSALHVASQHGHLGCIQTLVRYGANVTMQNHG (SEQ ID NO:1) (peptide)
# peptide: Ac-KGNSALHVASQHGHLGCIQTLVRYGANVTMQNHG-NH2
# notes: For SPR it was immobilised on a CM5 chip by ligand thiol coupling; also called ankyrin repeat-like peptide
# Assays:
# SNCG = SNCG (Homo sapiens, UniProt O76070); assay: Co-immunoprecipitation of EGFP-ANK deletion peptides with anti-SNCG antibody; assay type: binding; design: expressed in transfected cells; host or cells: MCF7-SNCG (MCF7 stably expressing SNCG); details: MCF7-neo and MCF7-SNCG clones transfected with pEGFP-ANK deletion peptide plasmids
# Chain of SNCG (O76070 whole entry): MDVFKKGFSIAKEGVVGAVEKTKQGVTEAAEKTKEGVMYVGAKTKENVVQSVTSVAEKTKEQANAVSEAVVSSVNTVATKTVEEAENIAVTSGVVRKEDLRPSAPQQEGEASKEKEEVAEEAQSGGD
# MCF7-Neo cells = assay: Microinjection of ANK peptide then nocodazole, mitotic arrest/apoptosis count; assay type: cell-based; details: cells without ANK injection, 0.5 μM nocodazole for 24 hours
# Procedure: ANK peptide interference with SNCG-BubR1 association in vivo was examined in a stable breast cancer cell line MCF7 expressing SNCG (MCF7-SNCG) and a control SNCG negative cell line (MCF7-Neo). […] Significant numbers of cells survived after treatment with the ANK peptide by microinjection in both cell lines. After microinjection, cells were treated with 0.5 μM nocodazole for 24 hours and the fraction of mitotically arrested cells was counted.
# MCF7-SNCG and MCF-Neo were grown to 80% confluence, split with trypsin and seeded on a 22 mm glass coverslip treated with human fibronectin ([…]) into 60 mm diameter dishes containing cell maintenance medium for 24 hours and utilized for the experiments. In initial experiments ANK peptide (5, 10 or 100 μM) was microinjected. In all further experiment to date, ANK peptide (10 μM), together with goat IgG (1 mg/ml) and fluoroscein isothiocyanate (FITC, 5 mg/ml; Molecular Probes) into the MCF7-SNCG or MCF7-Neo cells under a 40× magnification of phase contrast microscope (Carl Zeiss Inc.) using a pressure injection system (Femtojet, Eppendorf). To exclude the possibility that microinjection might affect cell cycle and proliferation, MCF7-Neo and MCF7-SNCG were microinjected with goat IgG as a control. Injections were done at a constant flow setup by varying the injection pressure Pc between 40-70 units. The microscope stage was kept at 37° C. using thermal control device (Tempcontrol-37-2 Digital). Approximately 25-30 cells were microinjected in each experiment (n=3). Cells were quickly incubated to revive. […]
# For the immunofluorescence experiments, cells were fixed in 0.5% buffered paraformaldehyde for 8 minutes at room temperature. […] Cells were scored by identifying cells containing Alexa Fluor 488 excited at 488 nm, and the emission measured at 500-535 nm; DAPI was excited at 345 nm and the emission was measured at 445 nm. […] Mitotic index was determined as described by Gupta et al. (Oncogene 2003 22:7593-7599) and Inaba et al. Breast Cancer Res. Treat. […]
# [1] = biological target: SNCG expressed in cells (MCF7-SNCG, T47D, or COS7 transfected with pCI-SNCG) (UniProt O76070 1-127, limits assumed); assay: cell-based or functional assay
# Chain of SNCG expressed in cells (MCF7-SNCG, T47D, or COS7 transfected with pCI-SNCG) (O76070 whole entry, stated change not applied): as the sequence (O76070 whole entry) above
# [2] = biological target: T1, synuclein-gamma (SNCG), recombinant, released from GST-SNCG by thrombin (human, UniProt O76070 1-127); assay: intrinsic tyrosine fluorescence of 30 µM SNCG titrated with ANK peptide
# T1 construct: 15N-labelled for NMR; also called native SNCG; Breast Cancer Specific Gene 1
# T1 sequence (O76070 whole entry): as above
# [3] = biological target: T2, glutathione S-transferase (GST) (UniProt P08515 1-218 = GST); assay: SPR (BIACORE 3000), ANK peptide immobilised, GST as analyte
# T2 construct: Control for GST-SNCG in SPR
# T2 sequence (P08515 whole entry): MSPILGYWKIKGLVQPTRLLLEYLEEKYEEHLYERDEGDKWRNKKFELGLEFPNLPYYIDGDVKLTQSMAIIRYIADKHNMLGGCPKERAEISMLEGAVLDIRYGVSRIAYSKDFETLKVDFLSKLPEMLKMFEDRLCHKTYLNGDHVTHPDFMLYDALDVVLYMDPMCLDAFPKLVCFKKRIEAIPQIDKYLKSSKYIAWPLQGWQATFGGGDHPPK
# [4] = biological target: T3, glutathione S-transferase (GST)-SNCG fusion protein (human, UniProt O76070 1-127); assay: SPR, ANK peptide immobilised, GST-SNCG analyte, apparent overall Kd
# T3 construct: Expressed in E. coli BL21 (DE3), eluted with reduced glutathione; Used as analyte in SPR, in the cell in ITC and as bait in the GST pull-down; not shown: glutathione S-transferase tag encoded by the pGEX-4T-3 vector (Amersham Biosciences); vector linker with thrombin site between GST and the BamH1 site
# T3 sequence (O76070 whole entry, the tested form may be a part): as the sequence (O76070 whole entry) above
# [5] = biological target: T3, glutathione S-transferase (GST)-SNCG …; assay: SPR, ANK peptide immobilised, GST-SNCG analyte, global fit, two-phase reaction (conformation change) model, kd2
# [6] = biological target: T3, glutathione S-transferase (GST)-SNCG …; assay: ITC, ANK peptide titrated into GST-SNCG, sequential binding site model, first binding site
# [7] = biological target: T3, glutathione S-transferase (GST)-SNCG …; assay: SPR, ANK peptide immobilised, GST-SNCG analyte, global fit, two-phase reaction (conformation change) model, kd1
molecule,measurement,setting,value
"EGFP-ANK deletion peptide P8: EGFP fusion of deletion peptide P8 GANVTMQN, expressed from pEGFP-C2 plasmid in cells (not fully specified (N-terminus); also: EGFP fusion protein (recombinant))",interaction with SNCG by co-IP,SNCG,identified to interact
"COC(=O)Nc1nc2ccc(C(=O)c3cccs3)cc2[nH]1 [nocodazole, reference compound]",degree of mitotic arrest in MCF7-Neo cells as compared to MCF7-SNCG cells,MCF7-Neo cells,significantly higher degree of mitotic arrest
"EGFP-ANK deletion peptide P12: EGFP fusion of deletion peptide P12 GNSALHVASQHG, expressed from pEGFP-C2 plasmid in cells (not fully specified (N-terminus); also: EGFP fusion protein (recombinant))",interaction with SNCG by co-IP,SNCG,identified to interact
"KGNSALHVASQHGHLGCIQTLVRYGANVTMQNHG (other, not shown: large carriers, not fully specified (N-terminus); also: EGFP fusion protein (recombinant)) [enhanced green fluorescent protein (EGFP)-ANK fusion protein]",apoptotic cell populations (DAPI staining) after paclitaxel,[1],5 fold
same,"apoptotic/dead cell population, flow cytometric cell cycle analysis after 0.5 µM paclitaxel, MCF7-SNCG cells",[1],~4 fold
same,"positive phosphorylated histones (anti-phospho-H3 staining, flow cytometry), MCF7-SNCG cells",[1],3.5 fold
B1,Kd,[2],~100 µM
same,binding result,[3],no binding
same,Kd,[4],73.4 µM
same,koff,[5],0.000802 s⁻¹
same,Kd,[6],70 µM
same,ΔH,[6],2.17 kcal/mol
same,koff,[7],0.014 s⁻¹
